Assay results as given in US20170305994A1 (Novo Nordisk, published 2017).
Read-outs that look alike come from different tables or passages of the source. Values belong to the binder of their own block, whether it stands above or below them.

Assays:
DR3 (CRD1)-Fc [1] = target: T1, DR3 (CRD1)-Fc (human); test: SPR
T1 construct: Amino acids 25-71 of DR3 fused to the Fc domain of human IgG4; purified to exclude oligomers (mainly dimeric)
From the text: (§1) The extracellular moiety of DR3 is located at the aminoterminal portion of DR3 and is comprised of four TNF receptor cysteine-rich domains. Several fusion proteins were expressed and purified which contained parts of the extracellular domain of DR3 of increasing length fused to the Fc domain of a human IgG4. The DR3 proteins used for SPR analysis had been purified to exclude oligomerized material. These proteins were immobilized to a CM5 sensor chip using amine coupling chemistry. Binding of anti-DR3 antibodies termed 0070, 0072, 0073 and 0076, to the different DR3-Fc fusion proteins was tested by means of plasmon surface binding measurements on a Biacore T100 instrument (GE Healthcare). All of these antibodies inhibit binding of TL1A to DR3 in a FACS assay. These 4 antibodies bound to recombinant DR3 (CRD1)-Fc protein that contained only the aminoterminal CRD (SEQ ID NO:2) comprised of amino acids 25-71 of DR3.
The same analysis was also performed for some of the Fab fragments.

[2] = target: T2, human DR3 (full length, on cells) (human, UniProt Q93038 25-417); test: cell-based or functional assay
T2 sequence: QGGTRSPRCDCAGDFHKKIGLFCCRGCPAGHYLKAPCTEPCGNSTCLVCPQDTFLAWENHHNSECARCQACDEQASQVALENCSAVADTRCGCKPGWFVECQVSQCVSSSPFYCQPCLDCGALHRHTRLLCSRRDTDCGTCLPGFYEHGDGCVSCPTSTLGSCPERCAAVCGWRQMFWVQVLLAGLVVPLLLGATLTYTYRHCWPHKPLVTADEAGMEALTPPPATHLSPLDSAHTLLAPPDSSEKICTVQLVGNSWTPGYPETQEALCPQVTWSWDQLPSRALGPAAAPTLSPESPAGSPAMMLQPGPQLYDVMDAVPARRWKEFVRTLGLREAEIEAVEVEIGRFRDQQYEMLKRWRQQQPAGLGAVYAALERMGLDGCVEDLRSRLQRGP

[3] = target: T2, human DR3 (full length, on cells); test: cell-based or functional assay; remark: listed apart in the source
[4] = target: T3, human DR3 with the death domain deleted (ΔM339-P417 of SEQ ID NO:1), expressed on CHOK1SV cells (human, UniProt Q93038 25-338); test: flow cytometry competition: Fab vs TL1A on hDR3-expressing CHO cells
T3 construct: also called truncated DR3; hDR3 expressing CHO cells
T3 sequence: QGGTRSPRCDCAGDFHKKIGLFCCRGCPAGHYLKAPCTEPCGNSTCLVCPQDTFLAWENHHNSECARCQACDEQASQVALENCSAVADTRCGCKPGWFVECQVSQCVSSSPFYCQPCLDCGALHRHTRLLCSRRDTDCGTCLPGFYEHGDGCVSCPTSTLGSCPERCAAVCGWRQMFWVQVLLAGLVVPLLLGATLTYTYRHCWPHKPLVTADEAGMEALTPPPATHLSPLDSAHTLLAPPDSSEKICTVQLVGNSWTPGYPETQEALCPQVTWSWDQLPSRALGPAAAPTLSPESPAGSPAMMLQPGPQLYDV

[5] = target: T4, cynomolgus DR3 (on HEK293 reporter cells) (cynomolgus, UniProt A0A2K5WJ09 98-464); test: cell-based or functional assay
T4 sequence: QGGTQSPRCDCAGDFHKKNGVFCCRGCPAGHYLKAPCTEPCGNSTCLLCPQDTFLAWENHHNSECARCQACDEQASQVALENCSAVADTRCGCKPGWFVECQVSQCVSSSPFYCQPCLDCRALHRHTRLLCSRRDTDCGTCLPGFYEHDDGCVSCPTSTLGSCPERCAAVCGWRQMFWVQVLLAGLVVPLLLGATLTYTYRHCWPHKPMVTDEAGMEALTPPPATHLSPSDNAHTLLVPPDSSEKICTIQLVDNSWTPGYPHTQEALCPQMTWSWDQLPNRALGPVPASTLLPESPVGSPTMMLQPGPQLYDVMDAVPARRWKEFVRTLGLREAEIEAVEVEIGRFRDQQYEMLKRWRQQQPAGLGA

[6] = target: T2, human DR3 (full length, on cells); test: cell-based or functional assay; remark: listed apart in the source
[7] = target: T4, cynomolgus DR3 (on HEK293 reporter …); test: cell-based or functional assay; remark: listed apart in the source
[8] = target: T5, marmoset DR3 (transiently expressed on HEK293 cells) (marmoset, UniProt U3ENN5 27-418); test: cell-based or functional assay
T5 sequence: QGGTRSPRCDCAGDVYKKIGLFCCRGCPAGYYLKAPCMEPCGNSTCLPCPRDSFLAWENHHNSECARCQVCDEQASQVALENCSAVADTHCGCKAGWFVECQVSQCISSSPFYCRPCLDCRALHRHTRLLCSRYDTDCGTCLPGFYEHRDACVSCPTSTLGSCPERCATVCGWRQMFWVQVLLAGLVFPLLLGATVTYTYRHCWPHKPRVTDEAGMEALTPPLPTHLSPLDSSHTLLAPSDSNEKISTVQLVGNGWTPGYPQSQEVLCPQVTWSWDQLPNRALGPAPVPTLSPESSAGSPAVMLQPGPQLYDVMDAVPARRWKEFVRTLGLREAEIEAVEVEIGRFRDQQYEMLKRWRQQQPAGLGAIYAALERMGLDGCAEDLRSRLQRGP

[9] = target: T2, human DR3 (full length, on cells); test: cell-based or functional assay; remark: listed apart in the source
[10] = target: T2, human DR3 (full length, on cells); test: cell-based or functional assay; remark: listed apart in the source
DR3 (CRD1)-Fc [11] = target: T1, DR3 (CRD1)-Fc; test: SPR, Biacore T100, DR3-Fc fusion immobilised
From the text: as §1

[12] = target: T2, human DR3 (full length, on cells); test: flow cytometry on CD3/CD28-stimulated human CD4+ T cells
Protocol: Human CD4-positive T cells were purified from Buffy coats using CD4 Rosettesep (Stem cell technologies) and Histopaque (Sigma). T cells were stimulated with CD3/CD28 Dynabeads (Invitrogen) at a 1:1 ratio for 4 days in T75 flask at 2 mio CD4 T cells/ml in RPMI supplemented with 10% fcs. Beads were removed using a magnet, and cells were washed twice before titrating in antibodies on 500.000 cells/staining. Binding saturation was measured after incubation with goat-anti-mouse phycoerythrin (Jackson ImmunoResearch) and cells were subsequently analysed by flow cytometry on a BD LSRII. All antibodies reached saturation at 3 μg/ml.

[13] = target: T2, human DR3 (full length, on cells); test: flow cytometry on IL-12/IL-18/TL1A activated CD4+ T cells, 1 µg/ml
Protocol: (§2) Buffy Coats were obtained from normal healthy volunteers from Copenhagen University Hospital. CD4+ T cells were isolated through magnetic bead separation. Cells were activated with 2 ng/ml IL-12, 50 ng/ml IL-18 and 100 ng/ml TL1A (Flag-HIS-TEV-TL1A-produced at Novo Nordisk A/S) and cultured for 5 days. On day 5 cells were stained with 10, 5, 1, 0.5, 0.1 or 0.0001 μg/ml of the anti-DR3 mAb clones 0072, 0073, or 0077, or with Fab fragment clones 0087, 0088 and 0091. A secondary PE conjugated goat-anti-mouse (H+L) was used for detection.
The greater observed MFI values of IgG treated compared with Fab treated cells was expected since the secondary (detecting) antibody (anti-IgG heavy and light chain) bound to both Fab and Fc parts of the full-length IgG antibody clones, but only to Fab parts of Fab clones (Table 9).

[14] = target: T2, human DR3 (full length, on cells); test: as above; remark: listed apart in the source
Protocol: as §2
as §2, with “Material and Methods: Buffy” for “Buffy”, “Copenhagen” for “Copenhagen University”, “0088 or” for “0088 and”, “detection. Samples were in duplicate. Staining intensity was evaluated by FACS.” for “detection.”

B1: 0152 (chimeric Fab of 50F191, human IgG4 constant domain, hinge Cys->Ser) (Fab, V domains shown)
VH: EVQLVESGGGLVEPGGSLKLSCAASGFTFSTYAMSWVRQSPEKRLEWVAEISSGDSYTYYPDIVTGRFTISRDDAKNTLFLEMSSLRSEDTAIYYCVRDQDYRYDGYYAMDHWGQGTSVTVSS
VL: DIVLTQSPASLAVSLGQRATISCRASESVEHYGTSLMQWYQQKPGQPPKLLIYAASNVESGVPARFSGRGSGPDFSLNIHPVEEDDIAMYFCQQSRRIPWTFGGGTKLEIKR
notes: IgG4-Ser, chimeric
binding result (DR3 (CRD1)-Fc [1]): binds
IC50 at 40 ng/ml TL1A, I5 reporter cells [2]: 2.1 nM
IC50, TNFalpha inhibition, TL1A-activated CD4+ T cells, donor 1 [3]: 0.183 nM
IC50, TNFalpha inhibition, average (n 1) [3]: 0.183 nM
max % inhibition of TNFalpha, donor 1 [3]: 73.5%
IC50 [4]: 0.512 nM
max percentage inhibition [4]: 53%

B3: 0072 (murine mAb purified from hybridoma 27F44A2) (antibody, mouse IgG1, V domains shown)
VH: EVKLVESGGGLVKPGGSLKLSCSASGFAFSNYDMSWVRQTPEKRLEWVAAFSSDGYTFYPDSLKGRFTISRDNARNTLYLQMSSLGSEDTALYCCARHADYANYPVMDYWGQGTSVTVSS
VL: DIVLAQSPASLLVSLGQRATISCRASKSVSTSGYSYMHWYQQKPGQPPKLLIYLASNLESGVPARFSGSGSGTDFTLNIHPVEEEDAATYYCQHSRELPLTFGAGTMLELKR
notes: murine IgG1, kappa; also called 0084
fold response, DR3 reporter, 40 ng/ml TL1A + 0.000256 microg/ml [9]: 33.8 fold
fold response, DR3 reporter, 40 ng/ml TL1A + 0.00128 microg/ml [9]: 37.2 fold
fold response, DR3 reporter, 40 ng/ml TL1A + 0.0064 microg/ml [9]: 40.3 fold
fold response, DR3 reporter, 40 ng/ml TL1A + 0.032 microg/ml [9]: 41 fold
fold response, DR3 reporter, 40 ng/ml TL1A + 0.08 microg/ml [9]: 38.4 fold
fold response, DR3 reporter, 40 ng/ml TL1A + 4 microg/ml [9]: 34 fold
fold response, DR3 reporter, 40 ng/ml TL1A + 20 microg/ml [9]: 27.8 fold
fold response, DR3 reporter, 40 ng/ml TL1A + 100 microg/ml [9]: 18.4 fold
fold response, DR3 reporter, no TL1A, 0.000256 microg/ml [9]: 1.1 fold
fold response, DR3 reporter, no TL1A, 0.00128 microg/ml [9]: 2.2 fold
fold response, DR3 reporter, no TL1A, 0.0064 microg/ml [9]: 9.3 fold
fold response, DR3 reporter, no TL1A, 0.032 microg/ml [9]: 18.6 fold
fold response, DR3 reporter, no TL1A, 0.08 microg/ml [9]: 25.1 fold
fold response, DR3 reporter, no TL1A, 4 microg/ml [9]: 21.1 fold
fold response, DR3 reporter, no TL1A, 20 microg/ml [9]: 16.3 fold
fold response, DR3 reporter, no TL1A, 100 microg/ml [9]: 9.2 fold
fold response, DR3 reporter, 40 ng/ml TL1A + 0.1 microg/ml [10]: 29.6 fold
fold response, DR3 reporter, 40 ng/ml TL1A + 1 microg/ml [10]: 24.8 fold
fold response, DR3 reporter, 40 ng/ml TL1A + 10 microg/ml [10]: 23.3 fold
fold response, DR3 reporter, 40 ng/ml TL1A + 100 microg/ml [10]: 13.6 fold
fold response, DR3 reporter, no TL1A, 0.1 microg/ml [10]: 20.6 fold
fold response, DR3 reporter, no TL1A, 1 microg/ml [10]: 19.8 fold
fold response, DR3 reporter, no TL1A, 10 microg/ml [10]: 17.3 fold
fold response, DR3 reporter, no TL1A, 100 microg/ml [10]: 8.5 fold
binding result (DR3 (CRD1)-Fc [11]): binds
Median Fluorescent Intensity [12]: 2650
Staining index (MFI Ab/MFI Isotype) [12]: 11.9
saturation concentration [12]: 3 µg/mL
MFI [13]: 1300 MFI
MFI [14]: 1300 MFI

More lines, main results first:

binding result (DR3 (CRD1)-Fc [1]): binds
IC50 at 40 ng/ml TL1A, I5 reporter cells [2]: 0.188 nM
IC50 at 40 ng/ml TL1A, Lyda20 reporter cells [5]: 236 nM
IC50 at 40 ng/ml TL1A, transient reporter HEK293 [6]: 0.33 nM
IC50 at 40 ng/ml TL1A, transient reporter HEK293 [7]: 99 nM
IC50 at 40 ng/ml TL1A, transient reporter HEK293 [8]: 0.323 nM
IC50, TNFalpha inhibition, TL1A-activated CD4+ T cells, donor 1 [3]: 0.301 nM
IC50, TNFalpha inhibition, TL1A-activated CD4+ T cells, donor 2 [3]: 0.32 nM
IC50, TNFalpha inhibition, average (n 22) [3]: 0.208 nM
max % inhibition of TNFalpha, donor 1 [3]: 83.5%
max % inhibition of TNFalpha, donor 2 [3]: 75.9%
B2: 0123 (chimeric Fab of 27F44, human IgG4 constant domain, hinge Cys->Ser) (Fab, V domains shown)
VH: B3 VH
VL: B3 VL
notes: murine variable domains, human IgG4 constant domain (IgG4-Ser)
IC50 [4]: 0.443 nM
max percentage inhibition [4]: 80%

binding result (DR3 (CRD1)-Fc [11]): binds
Median Fluorescent Intensity [12]: 2330
Staining index (MFI Ab/MFI Isotype) [12]: 10.5
saturation concentration [12]: 3 µg/mL
B4: 0070 (murine mAb purified from hybridoma 27F16A1) (antibody, V domains shown)
VH: EVQLVESGGDFVKPGGSLKLSCAASGFTFNNYGMSWVRQTPDKRLEWVAAISSGVTYTYYPDTVKGRFTISRDNAKNTLYLHMSSLKSEDTAMYYCGRHDDYGNHFDYWGQGTTLTVSS
VL: DIVMTQSPSSLAMSLGQRVTMNCKSSQSLLNSHNQKNYLAWYQQKPGQSPKLLVYFASSRESGVPDRFIGSGSGTDFTLTISSVQAEDLADYFCQQHYSTPFTFGSGTKLEIKR
notes: murine IgG1, kappa; also called 0083
